Measurements published in paper PMC8580825, “Scaffolding protein CcmM directs multiprotein phase separation in β-carboxysome biogenesis” (Nature Structural & Molecular Biology, 2021).

B1: SeM58-K62D (natural protein, Synechococcus elongatus PCC 7942, UniProt Q03513 1-539, looked up)
chain: MPSPTTVPVATAGRLAEPYIDPAAQVHAIASIIGDVRIAAGVRVAAGVSIRADEGAPFQVGDESILQEGAVIHGLEYGRVLGDDQADYSVWIGQRVAITHKALIHGPAYLGDDCFVGFRSTVFNARVGAGSVIMMHALVQDVEIPPGRYVPSGAIITTQQQADRLPEVRPEDREFARHIIGSPPVIVRSTPAATADFHSTPTPSPLRPSSSEATTVSAYNGQGRLSSEVITQVRSLLNQGYRIGTEHADKRRFRTSSWQPCAPIQSTNERQVLSELENCLSEHEGEYVRLLGIDTNTRSRVFEALIQRPDGSVPESLGSQPVAVASGGGRQSSYASVSGNLSAEVVNKVRNLLAQGYRIGTEHADKRRFRTSSWQSCAPIQSSNERQVLAELENCLSEHEGEYVRLLGIDTASRSRVFEALIQDPQGPVGSAKAAAAPVSSATPSSHSYTSNGSSSSDVAGQVRGLLAQGYRISAEVADKRRFQTSSWQSLPALSGQSEATVLPALESILQEHKGKYVRLIGIDPAARRRVAELLIQKP
notes: CcmM (M58), Synechococcus elongatus PCC 7942, point mutant in the γCAL domain; source: E. coli BL21 (DE3), purified as wild-type M58; not shown: His6-ubiquitin, N-terminal, cleaved
B2: SeM58-R95D (natural protein, Synechococcus elongatus PCC 7942, UniProt Q03513 1-539, looked up)
chain: MPSPTTVPVATAGRLAEPYIDPAAQVHAIASIIGDVRIAAGVRVAAGVSIRADEGAPFQVGKESILQEGAVIHGLEYGRVLGDDQADYSVWIGQDVAITHKALIHGPAYLGDDCFVGFRSTVFNARVGAGSVIMMHALVQDVEIPPGRYVPSGAIITTQQQADRLPEVRPEDREFARHIIGSPPVIVRSTPAATADFHSTPTPSPLRPSSSEATTVSAYNGQGRLSSEVITQVRSLLNQGYRIGTEHADKRRFRTSSWQPCAPIQSTNERQVLSELENCLSEHEGEYVRLLGIDTNTRSRVFEALIQRPDGSVPESLGSQPVAVASGGGRQSSYASVSGNLSAEVVNKVRNLLAQGYRIGTEHADKRRFRTSSWQSCAPIQSSNERQVLAELENCLSEHEGEYVRLLGIDTASRSRVFEALIQDPQGPVGSAKAAAAPVSSATPSSHSYTSNGSSSSDVAGQVRGLLAQGYRISAEVADKRRFQTSSWQSLPALSGQSEATVLPALESILQEHKGKYVRLIGIDPAARRRVAELLIQKP
notes: as for B1
B3: SeM58-R79D (natural protein, Synechococcus elongatus PCC 7942, UniProt Q03513 1-539, looked up)
chain: MPSPTTVPVATAGRLAEPYIDPAAQVHAIASIIGDVRIAAGVRVAAGVSIRADEGAPFQVGKESILQEGAVIHGLEYGDVLGDDQADYSVWIGQRVAITHKALIHGPAYLGDDCFVGFRSTVFNARVGAGSVIMMHALVQDVEIPPGRYVPSGAIITTQQQADRLPEVRPEDREFARHIIGSPPVIVRSTPAATADFHSTPTPSPLRPSSSEATTVSAYNGQGRLSSEVITQVRSLLNQGYRIGTEHADKRRFRTSSWQPCAPIQSTNERQVLSELENCLSEHEGEYVRLLGIDTNTRSRVFEALIQRPDGSVPESLGSQPVAVASGGGRQSSYASVSGNLSAEVVNKVRNLLAQGYRIGTEHADKRRFRTSSWQSCAPIQSSNERQVLAELENCLSEHEGEYVRLLGIDTASRSRVFEALIQDPQGPVGSAKAAAAPVSSATPSSHSYTSNGSSSSDVAGQVRGLLAQGYRISAEVADKRRFQTSSWQSLPALSGQSEATVLPALESILQEHKGKYVRLIGIDPAARRRVAELLIQKP
notes: as for B1
B4: SeM58-E246K (natural protein, Synechococcus elongatus PCC 7942, UniProt Q03513 1-539, looked up)
chain: MPSPTTVPVATAGRLAEPYIDPAAQVHAIASIIGDVRIAAGVRVAAGVSIRADEGAPFQVGKESILQEGAVIHGLEYGRVLGDDQADYSVWIGQRVAITHKALIHGPAYLGDDCFVGFRSTVFNARVGAGSVIMMHALVQDVEIPPGRYVPSGAIITTQQQADRLPEVRPEDREFARHIIGSPPVIVRSTPAATADFHSTPTPSPLRPSSSEATTVSAYNGQGRLSSEVITQVRSLLNQGYRIGTKHADKRRFRTSSWQPCAPIQSTNERQVLSELENCLSEHEGEYVRLLGIDTNTRSRVFEALIQRPDGSVPESLGSQPVAVASGGGRQSSYASVSGNLSAEVVNKVRNLLAQGYRIGTEHADKRRFRTSSWQSCAPIQSSNERQVLAELENCLSEHEGEYVRLLGIDTASRSRVFEALIQDPQGPVGSAKAAAAPVSSATPSSHSYTSNGSSSSDVAGQVRGLLAQGYRISAEVADKRRFQTSSWQSLPALSGQSEATVLPALESILQEHKGKYVRLIGIDPAARRRVAELLIQKP
notes: CcmM (M58), Synechococcus elongatus PCC 7942, point mutant in SSUL1; source: E. coli BL21 (DE3), purified as wild-type M58; not shown: His6-ubiquitin, N-terminal, cleaved
B5: SeM58-D112K (natural protein, Synechococcus elongatus PCC 7942, UniProt Q03513 1-539, looked up)
chain: MPSPTTVPVATAGRLAEPYIDPAAQVHAIASIIGDVRIAAGVRVAAGVSIRADEGAPFQVGKESILQEGAVIHGLEYGRVLGDDQADYSVWIGQRVAITHKALIHGPAYLGKDCFVGFRSTVFNARVGAGSVIMMHALVQDVEIPPGRYVPSGAIITTQQQADRLPEVRPEDREFARHIIGSPPVIVRSTPAATADFHSTPTPSPLRPSSSEATTVSAYNGQGRLSSEVITQVRSLLNQGYRIGTEHADKRRFRTSSWQPCAPIQSTNERQVLSELENCLSEHEGEYVRLLGIDTNTRSRVFEALIQRPDGSVPESLGSQPVAVASGGGRQSSYASVSGNLSAEVVNKVRNLLAQGYRIGTEHADKRRFRTSSWQSCAPIQSSNERQVLAELENCLSEHEGEYVRLLGIDTASRSRVFEALIQDPQGPVGSAKAAAAPVSSATPSSHSYTSNGSSSSDVAGQVRGLLAQGYRISAEVADKRRFQTSSWQSLPALSGQSEATVLPALESILQEHKGKYVRLIGIDPAARRRVAELLIQKP
notes: as for B1
B6: SeM58-E286K (natural protein, Synechococcus elongatus PCC 7942, UniProt Q03513 1-539, looked up)
chain: MPSPTTVPVATAGRLAEPYIDPAAQVHAIASIIGDVRIAAGVRVAAGVSIRADEGAPFQVGKESILQEGAVIHGLEYGRVLGDDQADYSVWIGQRVAITHKALIHGPAYLGDDCFVGFRSTVFNARVGAGSVIMMHALVQDVEIPPGRYVPSGAIITTQQQADRLPEVRPEDREFARHIIGSPPVIVRSTPAATADFHSTPTPSPLRPSSSEATTVSAYNGQGRLSSEVITQVRSLLNQGYRIGTEHADKRRFRTSSWQPCAPIQSTNERQVLSELENCLSEHEGKYVRLLGIDTNTRSRVFEALIQRPDGSVPESLGSQPVAVASGGGRQSSYASVSGNLSAEVVNKVRNLLAQGYRIGTEHADKRRFRTSSWQSCAPIQSSNERQVLAELENCLSEHEGEYVRLLGIDTASRSRVFEALIQDPQGPVGSAKAAAAPVSSATPSSHSYTSNGSSSSDVAGQVRGLLAQGYRISAEVADKRRFQTSSWQSLPALSGQSEATVLPALESILQEHKGKYVRLIGIDPAARRRVAELLIQKP
notes: as for B4
B7: SeM58-R126D (natural protein, Synechococcus elongatus PCC 7942, UniProt Q03513 1-539, looked up)
chain: MPSPTTVPVATAGRLAEPYIDPAAQVHAIASIIGDVRIAAGVRVAAGVSIRADEGAPFQVGKESILQEGAVIHGLEYGRVLGDDQADYSVWIGQRVAITHKALIHGPAYLGDDCFVGFRSTVFNADVGAGSVIMMHALVQDVEIPPGRYVPSGAIITTQQQADRLPEVRPEDREFARHIIGSPPVIVRSTPAATADFHSTPTPSPLRPSSSEATTVSAYNGQGRLSSEVITQVRSLLNQGYRIGTEHADKRRFRTSSWQPCAPIQSTNERQVLSELENCLSEHEGEYVRLLGIDTNTRSRVFEALIQRPDGSVPESLGSQPVAVASGGGRQSSYASVSGNLSAEVVNKVRNLLAQGYRIGTEHADKRRFRTSSWQSCAPIQSSNERQVLAELENCLSEHEGEYVRLLGIDTASRSRVFEALIQDPQGPVGSAKAAAAPVSSATPSSHSYTSNGSSSSDVAGQVRGLLAQGYRISAEVADKRRFQTSSWQSLPALSGQSEATVLPALESILQEHKGKYVRLIGIDPAARRRVAELLIQKP
notes: as for B1
B8: SeM58-D249K (natural protein, Synechococcus elongatus PCC 7942, UniProt Q03513 1-539, looked up)
chain: MPSPTTVPVATAGRLAEPYIDPAAQVHAIASIIGDVRIAAGVRVAAGVSIRADEGAPFQVGKESILQEGAVIHGLEYGRVLGDDQADYSVWIGQRVAITHKALIHGPAYLGDDCFVGFRSTVFNARVGAGSVIMMHALVQDVEIPPGRYVPSGAIITTQQQADRLPEVRPEDREFARHIIGSPPVIVRSTPAATADFHSTPTPSPLRPSSSEATTVSAYNGQGRLSSEVITQVRSLLNQGYRIGTEHAKKRRFRTSSWQPCAPIQSTNERQVLSELENCLSEHEGEYVRLLGIDTNTRSRVFEALIQRPDGSVPESLGSQPVAVASGGGRQSSYASVSGNLSAEVVNKVRNLLAQGYRIGTEHADKRRFRTSSWQSCAPIQSSNERQVLAELENCLSEHEGEYVRLLGIDTASRSRVFEALIQDPQGPVGSAKAAAAPVSSATPSSHSYTSNGSSSSDVAGQVRGLLAQGYRISAEVADKRRFQTSSWQSLPALSGQSEATVLPALESILQEHKGKYVRLIGIDPAARRRVAELLIQKP
notes: as for B4
B9: SeM58-D294K (natural protein, Synechococcus elongatus PCC 7942, UniProt Q03513 1-539, looked up)
chain: MPSPTTVPVATAGRLAEPYIDPAAQVHAIASIIGDVRIAAGVRVAAGVSIRADEGAPFQVGKESILQEGAVIHGLEYGRVLGDDQADYSVWIGQRVAITHKALIHGPAYLGDDCFVGFRSTVFNARVGAGSVIMMHALVQDVEIPPGRYVPSGAIITTQQQADRLPEVRPEDREFARHIIGSPPVIVRSTPAATADFHSTPTPSPLRPSSSEATTVSAYNGQGRLSSEVITQVRSLLNQGYRIGTEHADKRRFRTSSWQPCAPIQSTNERQVLSELENCLSEHEGEYVRLLGIKTNTRSRVFEALIQRPDGSVPESLGSQPVAVASGGGRQSSYASVSGNLSAEVVNKVRNLLAQGYRIGTEHADKRRFRTSSWQSCAPIQSSNERQVLAELENCLSEHEGEYVRLLGIDTASRSRVFEALIQDPQGPVGSAKAAAAPVSSATPSSHSYTSNGSSSSDVAGQVRGLLAQGYRISAEVADKRRFQTSSWQSLPALSGQSEATVLPALESILQEHKGKYVRLIGIDPAARRRVAELLIQKP
notes: as for B4
B10: SeM58-E76K (natural protein, Synechococcus elongatus PCC 7942, UniProt Q03513 1-539, looked up)
chain: MPSPTTVPVATAGRLAEPYIDPAAQVHAIASIIGDVRIAAGVRVAAGVSIRADEGAPFQVGKESILQEGAVIHGLKYGRVLGDDQADYSVWIGQRVAITHKALIHGPAYLGDDCFVGFRSTVFNARVGAGSVIMMHALVQDVEIPPGRYVPSGAIITTQQQADRLPEVRPEDREFARHIIGSPPVIVRSTPAATADFHSTPTPSPLRPSSSEATTVSAYNGQGRLSSEVITQVRSLLNQGYRIGTEHADKRRFRTSSWQPCAPIQSTNERQVLSELENCLSEHEGEYVRLLGIDTNTRSRVFEALIQRPDGSVPESLGSQPVAVASGGGRQSSYASVSGNLSAEVVNKVRNLLAQGYRIGTEHADKRRFRTSSWQSCAPIQSSNERQVLAELENCLSEHEGEYVRLLGIDTASRSRVFEALIQDPQGPVGSAKAAAAPVSSATPSSHSYTSNGSSSSDVAGQVRGLLAQGYRISAEVADKRRFQTSSWQSLPALSGQSEATVLPALESILQEHKGKYVRLIGIDPAARRRVAELLIQKP
notes: as for B1

Biological target: the molecule itself
Assay: SEC-MALS; 2 mg/ml protein; 50 mM Tris-HCl pH 8.0/150 mM KCl or 50 mM Tris-HCl pH 8.0/500 mM KCl/5 mM DTT; 25 °C; oligomeric state in solution

Stoichiometry N, 3:
B1
B2
B3
B4
B5
B6
B7
B8
B9
B10
